Drawing on PMC3574121, this text covers stoichiometry N and Kd for one substance.

Test [1] concerns the target His-tagged FIV recombinant p24 capsid protein (Feline Immunodeficiency Virus, Petaluma strain) (Feline immunodeficiency virus (Petaluma strain)) (UniProt P16087). Nature of the test: dynamic light scattering; p24-His at 7 mg/ml, 50 mM sodium phosphate pH 7.4, 23°C; mean diameter 6.8 nm, single peak; monomer to dimer.
Test [2] has the same target. Briefly: ITC; dilution ITC: p24 at 7 mg/ml (243 µM) injected into buffer alone, 50 mM sodium phosphate pH 7.4, 30°C; dimer dissociation model; dimer to monomers. For orientation: ITC needs no label: the signal is the heat of the interaction.
The target is the same in test [3]. Briefly: cross-linking; p24 at 7 mg/ml with BS3 (20:1 w/w BS3:p24), 30 min at room temperature, SDS-PAGE; dimer seen with and not without BS3; no higher molecular weight species.

For the substance “His-tagged FIV recombinant p24 capsid protein (Feline Immunodeficiency Virus, Petaluma strain) (from UniProt P16087 136-357) (natural protein)”, the stoichiometry N in test [1] and in test [3] was 2 throughout. Moreover, in test [2], the Kd (in general, the equilibrium constant for the complex coming apart) amounted to 20 µM.
